One block for each binder: values may come before it.
Experiments:
Assay in all cases: holdup assay
Parameters in all cases: key: below the threshold = too weak to quantify, mostly under pKd 3.1 to 4
APBA1_2, Q02410 = molecular target: T1, APBA1_2, Q02410
T1 sequence (Q02410 742-832, limits assumed, looked up): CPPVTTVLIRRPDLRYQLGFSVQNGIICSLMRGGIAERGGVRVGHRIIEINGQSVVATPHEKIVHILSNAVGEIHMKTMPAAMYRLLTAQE

FRMPD3, Q5JV73 = molecular target: FRMPD3, Q5JV73
LNX2_2, Q8N448 = molecular target: T2, LNX2_2, Q8N448
T2 sequence (Q8N448 334-432, limits assumed, looked up): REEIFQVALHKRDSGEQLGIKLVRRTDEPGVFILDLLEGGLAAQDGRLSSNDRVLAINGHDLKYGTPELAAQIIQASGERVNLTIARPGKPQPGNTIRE

FRMPD2_1, Q68DX3 = molecular target: FRMPD2_1, Q68DX3
FRMPD2_1, Q68DX3, sequence (Q68DX3 770-861): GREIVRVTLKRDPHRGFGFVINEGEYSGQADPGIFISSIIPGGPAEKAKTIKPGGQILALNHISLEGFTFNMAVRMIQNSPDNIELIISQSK

FRMPD4, Q14CM0 = molecular target: FRMPD4, Q14CM0
FRMPD4, Q14CM0, sequence (Q14CM0 67-160): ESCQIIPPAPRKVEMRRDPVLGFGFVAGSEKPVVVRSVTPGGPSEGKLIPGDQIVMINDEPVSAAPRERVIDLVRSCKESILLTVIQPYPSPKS

NOS1, P29475 = molecular target: NOS1, P29475
NOS1, P29475, sequence (P29475 9-101): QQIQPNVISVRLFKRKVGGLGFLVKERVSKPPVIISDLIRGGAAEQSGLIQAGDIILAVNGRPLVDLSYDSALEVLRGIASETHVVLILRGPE

Inadl_6, Q8NI35 = molecular target: Inadl_6, Q8NI35
Inadl_6, Q8NI35, sequence (Q8NI35 1058-1167): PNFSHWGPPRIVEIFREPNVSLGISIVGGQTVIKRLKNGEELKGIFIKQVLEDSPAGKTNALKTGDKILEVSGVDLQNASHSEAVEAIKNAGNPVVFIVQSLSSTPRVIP

PARD3B_1, Q8TEW8 = molecular target: T3, PARD3B_1, Q8TEW8
T3 sequence (Q8TEW8 196-299, limits assumed, looked up): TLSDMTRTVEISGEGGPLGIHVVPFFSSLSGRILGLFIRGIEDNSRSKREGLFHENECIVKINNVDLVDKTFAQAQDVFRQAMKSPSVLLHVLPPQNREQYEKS

PTPN3, P26045 = molecular target: PTPN3, P26045
PTPN3, P26045, sequence (P26045 505-587): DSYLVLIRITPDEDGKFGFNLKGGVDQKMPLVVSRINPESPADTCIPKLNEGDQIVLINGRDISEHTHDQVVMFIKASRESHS

Inadl_4, Q8NI35 = molecular target: Inadl_4, Q8NI35
Inadl_4, Q8NI35, sequence (Q8NI35 547-651): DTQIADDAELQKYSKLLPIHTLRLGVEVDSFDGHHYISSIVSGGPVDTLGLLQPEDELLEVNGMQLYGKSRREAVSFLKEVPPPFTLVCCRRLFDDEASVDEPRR

PDZRN4_1, Q6ZMN7 = molecular target: PDZRN4_1, Q6ZMN7
PDZRN4_1, Q6ZMN7, sequence (Q6ZMN7 213-318): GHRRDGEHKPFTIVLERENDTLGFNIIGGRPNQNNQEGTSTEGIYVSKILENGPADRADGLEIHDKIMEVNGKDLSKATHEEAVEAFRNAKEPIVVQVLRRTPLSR

SHANK1, Q9Y566 = molecular target: T4, SHANK1, Q9Y566
T4 sequence (Q9Y566 658-767, limits assumed, looked up): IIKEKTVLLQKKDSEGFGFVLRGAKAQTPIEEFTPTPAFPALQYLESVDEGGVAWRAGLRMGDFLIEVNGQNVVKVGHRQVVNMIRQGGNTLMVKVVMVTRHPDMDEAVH

MAGI2_3, Q86UL8 = molecular target: MAGI2_3, Q86UL8
MAGI2_3, Q86UL8, sequence (Q86UL8 600-682): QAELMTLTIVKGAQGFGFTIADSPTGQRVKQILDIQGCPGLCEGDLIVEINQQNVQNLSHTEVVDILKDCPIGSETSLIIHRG

MAGI3_2, Q5TCQ9 = molecular target: MAGI3_2, Q5TCQ9
MAGI3_2, Q5TCQ9, sequence (Q5TCQ9 398-503): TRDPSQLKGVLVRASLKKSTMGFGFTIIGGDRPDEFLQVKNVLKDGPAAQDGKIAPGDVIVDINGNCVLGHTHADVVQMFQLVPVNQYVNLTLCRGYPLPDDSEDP

MPDZ_5, O75970 = molecular target: T5, MPDZ_5, O75970
T5 sequence (O75970 695-796, limits assumed, looked up): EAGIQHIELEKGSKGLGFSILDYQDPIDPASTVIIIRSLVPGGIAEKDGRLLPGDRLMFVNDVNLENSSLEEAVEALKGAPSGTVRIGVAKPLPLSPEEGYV

DFNB31_3, Q9P202 = molecular target: T6, DFNB31_3, Q9P202
T6 sequence (Q9P202 811-907, limits assumed, looked up): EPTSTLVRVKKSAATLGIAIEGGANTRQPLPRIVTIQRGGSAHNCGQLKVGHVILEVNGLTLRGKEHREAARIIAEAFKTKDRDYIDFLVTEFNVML

LNX1_3, Q8TBB1 = molecular target: LNX1_3, Q8TBB1
LNX1_3, Q8TBB1, sequence (Q8TBB1 500-596): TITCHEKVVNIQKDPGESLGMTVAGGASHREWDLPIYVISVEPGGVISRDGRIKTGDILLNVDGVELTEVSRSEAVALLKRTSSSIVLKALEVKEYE

DLG2_3, Q15700 = molecular target: DLG2_3, Q15700
PDLIM1, O00151 = molecular target: PDLIM1, O00151
PDLIM1, O00151, sequence (O00151 1-87): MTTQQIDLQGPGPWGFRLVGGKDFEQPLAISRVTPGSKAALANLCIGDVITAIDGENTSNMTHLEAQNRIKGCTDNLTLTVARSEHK

Inadl_10, Q8NI35 = molecular target: Inadl_10, Q8NI35
Inadl_10, Q8NI35, sequence (Q8NI35 1673-1763): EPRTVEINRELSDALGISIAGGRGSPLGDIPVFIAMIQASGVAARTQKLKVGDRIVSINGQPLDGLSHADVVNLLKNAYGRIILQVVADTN

PDZD7_3, Q9H5P4 = molecular target: T7, PDZD7_3, Q9H5P4
T7 sequence (Q9H5P4 857-944, limits assumed, looked up): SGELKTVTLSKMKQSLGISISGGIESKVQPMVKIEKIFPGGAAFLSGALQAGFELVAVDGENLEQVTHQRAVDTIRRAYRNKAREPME

SIPA1L2, Q9P2F8 = molecular target: T8, SIPA1L2, Q9P2F8
T8 sequence (Q9P2F8 945-1036, limits assumed, looked up): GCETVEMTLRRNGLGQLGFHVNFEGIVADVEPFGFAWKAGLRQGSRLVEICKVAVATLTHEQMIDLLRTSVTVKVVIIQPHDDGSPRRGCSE

FRMPD1, Q5SYB0 = molecular target: T9, FRMPD1, Q5SYB0
T9 sequence (Q5SYB0 52-145, limits assumed, looked up): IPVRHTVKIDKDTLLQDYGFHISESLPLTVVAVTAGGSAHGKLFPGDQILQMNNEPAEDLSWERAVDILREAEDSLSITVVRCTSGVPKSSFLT

Inadl_1, Q8NI35 = molecular target: Inadl_1, Q8NI35
Inadl_1, Q8NI35, sequence (Q8NI35 113-229): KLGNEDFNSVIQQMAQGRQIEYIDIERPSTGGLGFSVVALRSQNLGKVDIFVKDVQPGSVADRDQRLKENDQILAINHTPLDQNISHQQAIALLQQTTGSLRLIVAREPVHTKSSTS

GRIP1_4, Q9Y3R0 = molecular target: T10, GRIP1_4, Q9Y3R0
T10 sequence (Q9Y3R0 467-571, limits assumed, looked up): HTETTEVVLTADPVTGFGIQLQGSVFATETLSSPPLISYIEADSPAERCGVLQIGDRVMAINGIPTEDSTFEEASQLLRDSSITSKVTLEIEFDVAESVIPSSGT

NHERF4_2, Q86UT5 = molecular target: NHERF4_2, Q86UT5
NHERF4_2, Q86UT5, sequence (Q86UT5 220-308): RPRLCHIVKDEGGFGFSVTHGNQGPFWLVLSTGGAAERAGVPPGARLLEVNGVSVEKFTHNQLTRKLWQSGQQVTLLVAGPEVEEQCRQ

GRIP1_5, Q9Y3R0 = molecular target: T11, GRIP1_5, Q9Y3R0
T11 sequence (Q9Y3R0 568-668, limits assumed, looked up): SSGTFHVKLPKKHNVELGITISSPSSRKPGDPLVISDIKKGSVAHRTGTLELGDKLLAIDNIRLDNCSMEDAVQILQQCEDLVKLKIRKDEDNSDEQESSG

[1] = plain residues with an end cap or a label only (N-terminal biotin on a linker: ado-ado)
[2] = plain residues with an end cap or a label only (N-terminal biotin on a linker: ttds)
[3] = plain residues with an end cap or a label only (N-terminal biotin on a linker: ahx)

FRMPD3, Q5JV73, sequence (Q5JV73 12-100): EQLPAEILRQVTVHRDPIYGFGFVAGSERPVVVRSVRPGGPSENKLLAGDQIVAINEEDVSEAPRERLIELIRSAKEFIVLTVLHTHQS

- pKd (APBA1_2, Q02410; [1]): 3.5
- pKd (FRMPD3, Q5JV73; [1]): below the threshold
- pKd (LNX2_2, Q8N448; [1]): below the threshold
- pKd (FRMPD2_1, Q68DX3; [1]): below the threshold
- pKd (FRMPD4, Q14CM0; [1]): 4.04
- pKd (NOS1, P29475; [1]): 3.56
- pKd (Inadl_6, Q8NI35; [1]): 3.87
- pKd (PARD3B_1, Q8TEW8; [1]): 3.71
- pKd (PTPN3, P26045; [1]): 4.94
- pKd (Inadl_4, Q8NI35; [1]): below the threshold
- pKd (PDZRN4_1, Q6ZMN7; [1]): 4.13
- pKd (SHANK1, Q9Y566; [1]): 4.55
- pKd (MAGI2_3, Q86UL8; [1]): below the threshold
- pKd (MAGI3_2, Q5TCQ9; [1]): below the threshold
- pKd (MPDZ_5, O75970; [1]): below the threshold
- pKd (DFNB31_3, Q9P202; [1]): 3.86
- pKd (LNX1_3, Q8TBB1; [1]): below the threshold
- pKd (DLG2_3, Q15700; [1]): 3.78
- pKd (PDLIM1, O00151; [1]): 3.59
- pKd (Inadl_10, Q8NI35; [1]): below the threshold
- pKd (PDZD7_3, Q9H5P4; [1]): 4.72
- pKd (SIPA1L2, Q9P2F8; [1]): below the threshold
- pKd (FRMPD1, Q5SYB0; [1]): below the threshold
- pKd (Inadl_1, Q8NI35; [1]): below the threshold
- pKd (GRIP1_4, Q9Y3R0; [1]): below the threshold
- pKd (NHERF4_2, Q86UT5; [1]): below the threshold
- pKd (GRIP1_5, Q9Y3R0; [1]): below the threshold
Binder: EEPEERHTEL [CES2, O00748]

- pKd (APBA1_2, Q02410; [2]): below the threshold
- pKd (FRMPD3, Q5JV73; [2]): below the threshold
- pKd (LNX2_2, Q8N448; [2]): below the threshold
- pKd (FRMPD2_1, Q68DX3; [2]): below the threshold
- pKd (FRMPD4, Q14CM0; [2]): below the threshold
- pKd (NOS1, P29475; [2]): 3.64
- pKd (Inadl_6, Q8NI35; [2]): below the threshold
- pKd (PARD3B_1, Q8TEW8; [2]): below the threshold
- pKd (PTPN3, P26045; [2]): 4.25
- pKd (Inadl_4, Q8NI35; [2]): below the threshold
- pKd (PDZRN4_1, Q6ZMN7; [2]): below the threshold
- pKd (SHANK1, Q9Y566; [2]): below the threshold
- pKd (MAGI2_3, Q86UL8; [2]): below the threshold
- pKd (MAGI3_2, Q5TCQ9; [2]): below the threshold
- pKd (MPDZ_5, O75970; [2]): below the threshold
- pKd (DFNB31_3, Q9P202; [2]): below the threshold
- pKd (LNX1_3, Q8TBB1; [2]): below the threshold
- pKd (DLG2_3, Q15700; [2]): below the threshold
- pKd (PDLIM1, O00151; [2]): below the threshold
- pKd (Inadl_10, Q8NI35; [2]): below the threshold
- pKd (PDZD7_3, Q9H5P4; [2]): below the threshold
- pKd (SIPA1L2, Q9P2F8; [2]): below the threshold
- pKd (FRMPD1, Q5SYB0; [2]): below the threshold
- pKd (Inadl_1, Q8NI35; [2]): below the threshold
- pKd (GRIP1_4, Q9Y3R0; [2]): below the threshold
- pKd (NHERF4_2, Q86UT5; [2]): below the threshold
- pKd (GRIP1_5, Q9Y3R0; [2]): below the threshold
Binder: GGPKEEESPV [SLC16A1, P53985]

- pKd (APBA1_2, Q02410; [3]): 3.9
- pKd (FRMPD3, Q5JV73; [3]): below the threshold
- pKd (LNX2_2, Q8N448; [3]): 5.07
- pKd (FRMPD2_1, Q68DX3; [3]): below the threshold
- pKd (FRMPD4, Q14CM0; [3]): 3.6
- pKd (NOS1, P29475; [3]): 4.04
- pKd (Inadl_6, Q8NI35; [3]): 3.98
- pKd (PARD3B_1, Q8TEW8; [3]): 3.57
- pKd (PTPN3, P26045; [3]): 4.19
- pKd (Inadl_4, Q8NI35; [3]): below the threshold
- pKd (PDZRN4_1, Q6ZMN7; [3]): 3.67
- pKd (SHANK1, Q9Y566; [3]): 3.57
- pKd (MAGI2_3, Q86UL8; [3]): 3.77
- pKd (MAGI3_2, Q5TCQ9; [3]): 4.66
- pKd (MPDZ_5, O75970; [3]): below the threshold
- pKd (DFNB31_3, Q9P202; [3]): below the threshold
- pKd (LNX1_3, Q8TBB1; [3]): below the threshold
- pKd (DLG2_3, Q15700; [3]): 4.53
- pKd (PDLIM1, O00151; [3]): below the threshold
- pKd (Inadl_10, Q8NI35; [3]): 3.64
- pKd (PDZD7_3, Q9H5P4; [3]): 4.97
- pKd (SIPA1L2, Q9P2F8; [3]): below the threshold
- pKd (FRMPD1, Q5SYB0; [3]): below the threshold
- pKd (Inadl_1, Q8NI35; [3]): below the threshold
- pKd (GRIP1_4, Q9Y3R0; [3]): below the threshold
- pKd (NHERF4_2, Q86UT5; [3]): below the threshold
- pKd (GRIP1_5, Q9Y3R0; [3]): 3.55
Binder: QGRWDHETIV [TMEM215, Q68D42]

From article PMC9482650, “Quantitative fragmentomics allow affinity mapping of interactomes” (Nature Communications, 2022)
